Results on 2 molecules are retold here after doi:10.1101/181321 (bioRxiv, 2017).

Assay [1] deals with C-terminal biotinylated histone H3 peptide (1 to 35 a.a.) (UniProt P68431). Nature of the assay: SPR. (In general: SPR reads the build-up and loss of mass on a sensor chip optically.)
The target in assay [2] is T1, C-terminal region of human Importin4 (C-Importin4, residues 668 to 1081) (human, UniProt Q8TEX9 668-1081).
T1 sequence: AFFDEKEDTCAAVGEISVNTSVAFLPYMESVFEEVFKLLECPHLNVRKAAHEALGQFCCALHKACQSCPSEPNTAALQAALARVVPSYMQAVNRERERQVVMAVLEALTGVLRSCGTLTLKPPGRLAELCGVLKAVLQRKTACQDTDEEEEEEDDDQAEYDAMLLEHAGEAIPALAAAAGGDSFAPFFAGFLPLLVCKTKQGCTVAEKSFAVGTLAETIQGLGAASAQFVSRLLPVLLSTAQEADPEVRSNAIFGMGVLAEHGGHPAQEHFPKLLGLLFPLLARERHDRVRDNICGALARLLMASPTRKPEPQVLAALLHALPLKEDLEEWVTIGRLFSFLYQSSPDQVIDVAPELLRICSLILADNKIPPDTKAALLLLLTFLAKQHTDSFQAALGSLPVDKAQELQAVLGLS
Put plainly: SPR.

In assay [1], “C-terminal region of human Importin4 (C-Importin4, residues 668 to 1081) (from UniProt Q8TEX9 668-1081) (domain or fragment)” came in with a Kd of 1600 nM. In other words, the single-digit micromolar range. Consider ARTKQTARKSTGGKAPRK [histone H3 peptide (1-18 a.a.)], for which, in assay [2], the binding result was “binds”.

The term Kd denotes the equilibrium constant for the complex coming apart. The low end stands for higher affinity, the high end for lower affinity.
